Experimental data published in publication PMC10140047, “BICD2 phosphorylation regulates dynein function and centrosome separation in G2 and M” (Nature Communications, 2023).

B1: TwinStrep-BICD2 WT (natural protein, mouse, UniProt Q921C5 1-820, looked up)
chain: MSAPSEEEEYARLVMEAQPEWLRAEVKRLSHELAETTREKIQAAEYGLAVLEEKHQLKLQFEELEVDYEAIRSEMEQLKEAFGQAHTNHKKVAADGESREESLIQESASKEQYYVRKVLELQTELKQLRNVLTNTQSENERLTSVAQELKEINQNVEIQRGRLRDDIKEYKFREARLLQDYSELEEENISLQKQVSVLRQNQVEFEGLKHEIKRLEEETEYLNSQLEDAIRLKEISERQLEEALETLKTEREQKNNLRKELSHYMSINDSFYTSHLQVSLDGLKFSDDTVTAEPNNDAEALVNGFEHSGLVKSSLDNKTSTPRKDGLAPPSPSLVSDLLSELHISEIQKLKQQLVQMEREKVGLLATLQDTQKQLEQARGTLSEQHEKVNRLTENLSALRRLQAGKERQTSLDNEKDRDSHEDGDYYEVDINGPEILACKYHVAVAEAGELREQLKALRSTHEAREAQHAEEKGRYEAEGQALTEKISLLEKASHQDRELLAHLEKELKKVSDVAGETQGSLNVAQDELVTFSEELANLYHHVCMCNNETPNRVMLDYYREGQGKAGRTSPEGRGRRSPVLLPKGLLATEVGRADGGTGDNSPSPSSSLPSPLSDPRREPMNIYNLIAIIRDQIKHLQAAVDRTTELSRQRIASQELGPAVDKDKEALMEEILKLKSLLSTKREQITTLRTVLKANKQTAEVALANLKSKYENEKAMVTETMMKLRNELKALKEDAATFSSLRAMFATRCDEYITQLDEMQRQLAAAEDEKKTLNSLLRMAIQQKLALTQRLELLELDHEQTRRGRSKAASKAKPASPSL
notes: BICD2, mouse cDNA amplified from the pEGFP constructs into pLIB-TwinStrep-3C-BICD2; A 3C site lies between tag and protein; no cleavage is described; also called full-length BICD2 WT; wild type TwinStrep-BICD2; source: insect cells (baculovirus), purified (StrepTactinXT, Superdex 200); not shown: TwinStrep, N-terminal, kept
B2: GST-Rab6A (natural protein, human, UniProt P20340 1-208, looked up)
chain: MSTGGDFGNPLRKFKLVFLGEQSVGKTSLITRFMYDSFDNTYQATIGIDFLSKTMYLEDRTVRLQLWDTAGQERFRSLIPSYIRDSTVAVVVYDITNVNSFQQTTKWIDDVRTERGSDVIIMLVGNKTDLADKRQVSIEEGERKAKELNVMFIETSAKAGYNVKQLFRRVAAALPGMESTQDRSREDMIDIKLEKPQEQPVSEGGCSC
notes: Preloaded with either GDP or GTPγS before the pull-down
B3: TwinStrep-BICD2 S102D (natural protein, mouse, UniProt Q921C5 1-820, looked up)
chain: MSAPSEEEEYARLVMEAQPEWLRAEVKRLSHELAETTREKIQAAEYGLAVLEEKHQLKLQFEELEVDYEAIRSEMEQLKEAFGQAHTNHKKVAADGESREEDLIQESASKEQYYVRKVLELQTELKQLRNVLTNTQSENERLTSVAQELKEINQNVEIQRGRLRDDIKEYKFREARLLQDYSELEEENISLQKQVSVLRQNQVEFEGLKHEIKRLEEETEYLNSQLEDAIRLKEISERQLEEALETLKTEREQKNNLRKELSHYMSINDSFYTSHLQVSLDGLKFSDDTVTAEPNNDAEALVNGFEHSGLVKSSLDNKTSTPRKDGLAPPSPSLVSDLLSELHISEIQKLKQQLVQMEREKVGLLATLQDTQKQLEQARGTLSEQHEKVNRLTENLSALRRLQAGKERQTSLDNEKDRDSHEDGDYYEVDINGPEILACKYHVAVAEAGELREQLKALRSTHEAREAQHAEEKGRYEAEGQALTEKISLLEKASHQDRELLAHLEKELKKVSDVAGETQGSLNVAQDELVTFSEELANLYHHVCMCNNETPNRVMLDYYREGQGKAGRTSPEGRGRRSPVLLPKGLLATEVGRADGGTGDNSPSPSSSLPSPLSDPRREPMNIYNLIAIIRDQIKHLQAAVDRTTELSRQRIASQELGPAVDKDKEALMEEILKLKSLLSTKREQITTLRTVLKANKQTAEVALANLKSKYENEKAMVTETMMKLRNELKALKEDAATFSSLRAMFATRCDEYITQLDEMQRQLAAAEDEKKTLNSLLRMAIQQKLALTQRLELLELDHEQTRRGRSKAASKAKPASPSL
notes: BICD2, mouse, with S102D (pLIB-TwinStrep-3C-BICD2 S102D); A 3C site lies between tag and protein; no cleavage is described; also called full-length BICD2 S102D; S102D TwinStrep-BICD2; source: insect cells (baculovirus), purified (StrepTactinXT, Superdex 200); not shown: TwinStrep, N-terminal, kept

Legend:
GST-Rab6A = biological target: B2; experiment: pull-down; GST-Rab6 on GSH agarose beads preloaded with GTPγS, incubated 90 min at RT with purified TwinStrep-BICD2 in Binding Buffer (50 mM Tris pH 7.4, 125 mM NaCl, 5 mM EDTA, 0.1% NP40); blot with anti-BICD2; settings: both partners purified
TwinStrep-BICD2 S102D = biological target: B3; experiment: as above; settings: both partners purified
[1] = biological target: the molecule itself; experiment: SEC-MALS; purified TwinStrep-BICD2 WT and S102D; predicted MW of ~190 kDa

| Binder | fold binding against Rab6 preloaded with GDP (GST-Rab6A) | binding result (TwinStrep-BICD2 S102D) | stoichiometry N [1] |
| --- | --- | --- | --- |
| B1 | ~5 fold |  |  |
| B2 |  | binds |  |
| B3 | ~5 fold |  | 2 |
